Reference: publication PMC8050864

Tests used:
[1] = biological target: FL PFV intasome (tetramer of full-length prototype foamy virus integrase bound to two viral DNA ends) (prototype foamy virus); assay: pull-down
[2] = biological target: PFV IN(ΔCTD) intasome: full-length PFV IN(K120E) at the inner protomers, PFV IN(D273K, ΔCTD) at the outer protomers (prototype foamy virus); assay: pull-down

601 nucleosome treated with trypsin to remove the histone tails (from UniProt P04908 1-130; O60814 1-126; P68431 1-136; P62805 1-103) (complex)
percent of the lane's Coomassie signal in the TL H4 band on the beads [1]: 11.2% | percent of the lane's Coomassie signal in the TL H4 band on the beads [2]: 2.5%
